B1: Cell adhesion molecule-related/down-regulated by oncogenes (Rattus norvegicus (Rat)), O35158 (parent)
chain: MHPDLGPLWKLLYVLVILCSSVSSDLATYFISEPLSAVQKLGRPVVLHCSAKPVTARISWLHNGKRLDRNTEQIKIHRGTLTILSLNPSLSGCYQCVANNSVGAVVSGPATVSADALADFDSSTMHVITAEKKNTGFIGCRVPESNPKAEVRYKIRGKWLMYSTGNYIILPSGNLQILNVSSKDKGSYKCAAYNPVTSELKVEPAGRKLLVSRPSSDGFHILHPALSQALAVLPHSPVTLECVVSGVPASQVYWLKDGQDCLSGSNWRRLYSHLATASIDPADSGNYSCVVGNNSSGDVKHVTYTVNVLEHASISKGLHDQKVSLGATVRFTCEVHGNPAPNRTWFHNAQPIRPSSRHLTEGSVLKITGVIMEDSGLYQCMADNGIGFMQSTGRLQIEQDSGQRPVIVTAPANVEVTDGDFVTLSCNATGEPVPVIHWYGRHGLITSHPSQVLRSKSRKSHLFRPGDLDPEPVYLIMSQAGSSSLSIQAVTREHAGKYTCEAVNKHGSTQSEAFLTVVPFETNTKAEPVTPSEASQNDERDPRDGSESGLLNLFPVKVHSGGVELPAEKNASVPDAPNILSPPQTHMPDTYTLVWRTGRDGGMPINAYFVKYRKLDDGSGAVGSWHTVRVPGSESELHLTELEPSSLYEVLMVARSAVGEGQPAMLTFRTSKEKMASSKNTQASFPPVGIPKRPVTSEASNSNFGVVLTDSSRHSGVPEAPDRPTISMASETSVYVTWIPRANGGSPITAFKVEYKRMKSSDWLVAAEDIPPSKLSVEVRSLEPGSIYKFRVIVINHYGESFRSSASRPYQVAGFPNRFSNRPITGPHIAYTEAVSDTQIMLKWTYIPSSNNNTPIQGFYIYYRPTDSDNDSDYKRDVVEGSKQWHTIGHLQPETSYDIKMQCFNEGGESEFSNVMICETKVKRVPGASEYPMKELSTPPSSSGNGGNVGPATSPARSSDMLYLIVGCVLGVMVLILLVFIALCLWKSRQQSAIQKYDPPGYLYQGSEINGQMVEYTTLSGTARINGSVHGGFLSKGSLSNGCSHLHHKGPNGVNGILNGTINGGLYSAHTSSLTRTCVEFEHPHHLVNGGAVYTAVPQMDPLECINCRNCRNNNRCFTKTNSPLPVVPVVASYPQDGLEMKPLGVMKFPVCPVSTVPDGGQIPEECLKDSVAPAPTQRTCRQDNTSDINSDSTEDTAEFNRGDSSGHSEAEDKVFSWSPLILSPVLEDCSEKTAWSPPGPPLDGLSVVLQQAQET
partner: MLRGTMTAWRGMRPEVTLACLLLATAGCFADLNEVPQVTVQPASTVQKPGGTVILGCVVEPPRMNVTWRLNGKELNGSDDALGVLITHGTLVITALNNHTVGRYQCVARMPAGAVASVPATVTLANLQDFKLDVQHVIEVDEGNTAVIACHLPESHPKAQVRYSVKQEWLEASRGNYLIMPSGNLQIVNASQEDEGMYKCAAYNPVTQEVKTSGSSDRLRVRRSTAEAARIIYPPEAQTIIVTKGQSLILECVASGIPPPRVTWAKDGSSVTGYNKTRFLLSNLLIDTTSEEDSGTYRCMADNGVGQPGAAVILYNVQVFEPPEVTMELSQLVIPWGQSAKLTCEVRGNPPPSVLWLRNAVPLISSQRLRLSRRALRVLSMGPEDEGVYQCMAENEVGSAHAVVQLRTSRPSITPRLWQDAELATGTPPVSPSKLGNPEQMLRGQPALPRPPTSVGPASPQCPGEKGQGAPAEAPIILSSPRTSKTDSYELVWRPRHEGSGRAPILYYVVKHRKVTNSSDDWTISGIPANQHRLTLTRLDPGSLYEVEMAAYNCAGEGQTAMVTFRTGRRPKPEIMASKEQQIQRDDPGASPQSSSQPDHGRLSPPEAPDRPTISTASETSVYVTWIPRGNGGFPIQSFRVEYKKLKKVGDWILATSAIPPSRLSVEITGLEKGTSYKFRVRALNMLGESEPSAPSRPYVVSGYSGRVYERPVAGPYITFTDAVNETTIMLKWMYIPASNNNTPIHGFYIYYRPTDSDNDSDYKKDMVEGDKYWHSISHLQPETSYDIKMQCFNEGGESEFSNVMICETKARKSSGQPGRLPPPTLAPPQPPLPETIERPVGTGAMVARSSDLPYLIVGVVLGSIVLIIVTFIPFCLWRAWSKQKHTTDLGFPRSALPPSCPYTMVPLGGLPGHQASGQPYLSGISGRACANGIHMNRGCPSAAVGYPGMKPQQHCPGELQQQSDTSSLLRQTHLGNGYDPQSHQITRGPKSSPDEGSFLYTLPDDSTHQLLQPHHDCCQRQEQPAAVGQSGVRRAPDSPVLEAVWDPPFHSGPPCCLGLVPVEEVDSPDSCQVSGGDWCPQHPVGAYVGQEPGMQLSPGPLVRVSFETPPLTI
B2: Cell adhesion molecule-related/down-regulated by oncogenes (Rattus norvegicus (Rat)), O35158 (parent)
chain: B1 chain
partner: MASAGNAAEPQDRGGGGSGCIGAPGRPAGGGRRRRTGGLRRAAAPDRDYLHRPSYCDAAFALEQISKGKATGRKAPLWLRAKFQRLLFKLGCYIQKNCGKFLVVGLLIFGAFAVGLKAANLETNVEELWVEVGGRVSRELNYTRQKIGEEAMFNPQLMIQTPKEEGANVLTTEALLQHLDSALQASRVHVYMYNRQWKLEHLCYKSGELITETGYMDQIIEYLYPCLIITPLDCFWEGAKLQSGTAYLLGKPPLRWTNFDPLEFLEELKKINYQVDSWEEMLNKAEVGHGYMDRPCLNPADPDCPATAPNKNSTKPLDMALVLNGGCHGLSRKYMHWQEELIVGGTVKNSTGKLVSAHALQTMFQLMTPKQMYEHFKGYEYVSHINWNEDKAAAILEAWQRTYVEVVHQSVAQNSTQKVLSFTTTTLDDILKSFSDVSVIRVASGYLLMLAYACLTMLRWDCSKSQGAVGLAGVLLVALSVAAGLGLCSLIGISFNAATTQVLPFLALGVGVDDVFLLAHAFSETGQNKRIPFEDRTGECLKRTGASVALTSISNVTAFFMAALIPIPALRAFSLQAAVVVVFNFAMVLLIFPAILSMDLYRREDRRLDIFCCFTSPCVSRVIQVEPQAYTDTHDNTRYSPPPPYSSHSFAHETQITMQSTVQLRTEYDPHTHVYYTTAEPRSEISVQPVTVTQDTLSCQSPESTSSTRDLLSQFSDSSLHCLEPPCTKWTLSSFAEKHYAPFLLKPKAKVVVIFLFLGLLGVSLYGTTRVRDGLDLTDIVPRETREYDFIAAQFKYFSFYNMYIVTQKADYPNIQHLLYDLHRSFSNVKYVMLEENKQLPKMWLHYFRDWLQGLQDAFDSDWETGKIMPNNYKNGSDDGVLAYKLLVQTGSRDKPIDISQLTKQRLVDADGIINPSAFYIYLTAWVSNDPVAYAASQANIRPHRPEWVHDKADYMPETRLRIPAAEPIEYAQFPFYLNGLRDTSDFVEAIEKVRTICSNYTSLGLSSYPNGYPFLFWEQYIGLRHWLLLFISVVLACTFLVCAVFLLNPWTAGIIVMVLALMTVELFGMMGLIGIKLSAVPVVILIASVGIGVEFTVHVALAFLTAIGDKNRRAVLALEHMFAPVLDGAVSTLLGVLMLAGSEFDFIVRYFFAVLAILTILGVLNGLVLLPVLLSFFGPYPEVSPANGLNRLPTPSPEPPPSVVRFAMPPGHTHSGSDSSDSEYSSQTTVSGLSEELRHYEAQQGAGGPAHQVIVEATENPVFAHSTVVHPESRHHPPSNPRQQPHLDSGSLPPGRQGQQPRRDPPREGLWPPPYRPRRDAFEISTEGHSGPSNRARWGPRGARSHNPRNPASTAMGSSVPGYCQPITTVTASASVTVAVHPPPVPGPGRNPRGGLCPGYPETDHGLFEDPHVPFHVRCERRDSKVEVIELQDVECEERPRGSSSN
B3: Cell adhesion molecule-related/down-regulated by oncogenes (Rattus norvegicus (Rat)), O35158 (parent)
chain: B1 chain
partner: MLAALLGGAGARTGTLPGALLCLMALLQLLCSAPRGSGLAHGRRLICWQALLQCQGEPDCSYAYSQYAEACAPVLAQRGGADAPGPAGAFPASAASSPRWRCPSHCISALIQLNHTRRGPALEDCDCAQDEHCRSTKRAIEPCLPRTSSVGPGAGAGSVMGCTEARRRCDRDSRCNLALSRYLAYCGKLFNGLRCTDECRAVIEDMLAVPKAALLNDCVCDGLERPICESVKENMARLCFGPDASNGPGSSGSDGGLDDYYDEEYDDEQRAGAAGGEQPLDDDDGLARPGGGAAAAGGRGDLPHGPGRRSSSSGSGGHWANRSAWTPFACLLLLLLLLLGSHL

From IntAct's records for PubMed 21802063 come the findings set out here.

The first assay covers variants of B1. To be noted: with boc_human BOC.
Consider T681S, for which the “effect of a mutation on the interaction” value is “with no effect”. P686A: the “effect of a mutation on the interaction” value is “decreasing interaction strength”.

For the variant I787A, the “effect of a mutation on the interaction” value was “with no effect”. For S937R, the “effect of a mutation on the interaction” value is given as “with no effect”. Still for that read-out and setting: the value for V688M was “with no effect”; that for V777E was “with no effect”.

In a further assay the parent is B2. To be noted: with ptc1_human PTCH1, Q13635.
For S937R, the “effect of a mutation on the interaction” value is reported as “decreasing interaction strength”. Still for that read-out and setting: the value for V777E was “decreasing interaction strength”; that for T681S was “with no effect”. For the variant P686A, the “effect of a mutation on the interaction” value is “decreasing interaction strength”. Same read-out and setting: the value for V688M was “decreasing interaction strength”; that for I787A was “decreasing interaction strength”.

The variants in another assay derive from B3. Particulars: with gas1_mouse Gas1, Q01721.
T681S: the “effect of a mutation on the interaction” value is “with no effect”. In the case of I787A, the “effect of a mutation on the interaction” value is recorded as “decreasing interaction strength”. On the same count and under the same terms, then V688M, with “with no effect”; and V777E, with “with no effect”.

Consider P686A, for which the “effect of a mutation on the interaction” value is “decreasing interaction strength”. On to S937R, for which the “effect of a mutation on the interaction” value is “decreasing interaction strength”.
